The text below walks through data of the RNAGym collection of RNA variant scans (doi:10.1073/pnas.2313332121).

First the molecules themselves.
B1: TPR 5TU (parent)
chain: GGAUCUUCUCGAUCUAACAAAAAAGACAAAUCUGCCACAAAGCUUGAGAGCAUCUUCGGAUGCAGAGGCGGCAGCCUUCGGUGGCGCGAUAGCGCCAACGUUCUCAACUAUGACACGCAAAACGCGUGCUCCGUUGAAUGGAGUUUAUCAUG

This sample holds only a part of the variants without activity.

The series covers variants of B1. Briefly: polymerase ribozyme fitness, log enrichment relative to wild type (log ratio); higher = more active; in vitro selection for triplet polymerase activity. The essentials: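 For each subunit of a heterodimeric triplet polymerase ribozyme, a mutant library was built by PCR and transcribed, then taken through a single in vitro selection round in triplicate. Selection involved annealing to a biotinylated primer, the partner subunit and triplets, incubation frozen at −7 °C, gel excision of extended constructs, capture on streptavidin beads and RT-PCR. Genotypes were retained after Illumina sequencing of inputs and outputs only with ≥10 input reads and ≥1 read in each output. Fitness is defined as the logarithm of a genotype's enrichment relative to wild-type enrichment, using inverse-variance-weighted averages across replicates, with the logarithm taken to base 2.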
With GGAUGAUCUCGAUCUAACAAAAAAGACUAUUCUGCCACCAAGCUCGAGAGCAACUUAGGAUGCAGAGGCGGCAGCCUUCGGUGGCGCGAUAGCGCGAACGUUCUCAACUAUGACUCGCAAAACGCGUGUUCCGUUGAAUCGAGUUUAUCAUG [C5G U6A A28U A30U A39C U45C U53A C57A C96G A115U C129U G140C], the “polymerase ribozyme fitness (log ratio)” value is -3.81. On to GGAUCUUCUCGAUCUAACAAAAAAGACAAAUCUGCCACAAAGCUUGAGAGCAUCUUCGGAUGCAGAGGCGGCAGCGUUCGGUGGCGAGAUAGCGCCAACGUUCUCAACUAUGACACGCAAAACGCGUGCUCCGUUGAAUGGAGCUUAUCAUA [C76G C87A U144C G152A], for which the “polymerase ribozyme fitness (log ratio)” value is at most -4.2. Take GGAUCUUCUCGAUCUUACAAAAAAGACAAAUCUGCCACUAAGCUUGAGUCCAUCUUCGGAUGCAGAGGCGGCAGCCUUCGGUGUCGCGAUAGCGCCAACGUUCUCAACUAUGACACGCGAGACGCGUGCUCCGUUGAAUUGAGUUUAUCAUG [A16U A39U A49U G50C G84U A119G A121G G140U]: the “polymerase ribozyme fitness (log ratio)” value is at most -4.2. With GGAUGUUCUCGAUCUAGCAAAAAAGACAAAUCUGCCACAAAGCUUGAGAGCAUCUUCGGAUGCAGAGGCGGCAGCCUUCGGUGGCGCGAUAGGGUCAACGUUCUCAACUAUGACACGCAAAACGCGUGCUCCGUUGAAUGGAGUUUAUCAUG [C5G A17G C93G C95U], the “polymerase ribozyme fitness (log ratio)” value was -3.96. On to GGAUCUUCUCGAUCUAACAAAAAAGACUAAUCUGCCACAAAGCUUGAGAGCAUCUUCGGAUGCAGAGGCGGCAGCCUUCGGUGGCGCGAUAGCGCCAACGUUCUCAACUAUGACAGGCAAAACGCGUGCUCCGUUGAAUGGAGUUUAUCAUG [A28U C116G], for which the “polymerase ribozyme fitness (log ratio)” value was -3.74. In the case of GGAUCUUCUAGAUCUAACAAAAAAGACAAAUCUGCCACAAAGCUUGAGAGCAUCUUCGGAUGCAGAGGCGGCAGCUUUCGGUGGCGCGAUAGCGCCAACGUUCUCAACUAUGACACGCAAAACGCGUGCUCCGUUGAAUGGAGUUUAUCAUG [C10A C76U], the “polymerase ribozyme fitness (log ratio)” value is -3.95.

On to GGAUCUUCUCGAUGUAACAAAAAAGACAAAUCUGCCACAAAGCUUGAGAGCAUGUUCGGAUGCAGAGGCGACAGCCUUCGGUGGCGCGAUAGCGCCAAAAUUCUCAACUAUGACACGCAAAACGCGUGCUCCGUUGAAUGGAGUUUAUCAUG [C14G C54G G71A C99A G100A], for which the “polymerase ribozyme fitness (log ratio)” value is at most -4.2. To GGAUCUUCUCGAUCUAACAAAAAAGACAAAUCUGCCACAAAGCUUGAGAGCAUCUUCGCAUGCAGAGGCGGCAGCCUUCGGUGGCGCGAUAGCGACAACGUUCUCAACUAUGACACGCAAAACGCGUGCUGCGUUUAAUGGAGUUUAUCAUG [G59C C95A C131G G136U] belongs at most -4.2; to GGAUCUUCUCGAUCUAACAAAAAAGACAAAUCUGCCUCAAAGCUUGAGAGCAUCUUCGGAUGCAGAGGCGGAAGCCUUCGGUGGCGCGAUAGCGCCAACGUUCUCAACUAUGACACGCAAAACGCCUGCUCCGUUGAAUGGAGUUUAUCAUG [A37U C72A G126C], at most -4.2. Then GGAUGUUCUCGAUCUAACAAAAAAGACAAAUCUGCCACAAAGCUUGAGAGCAUCUUCGGAUGAAGAGGCGGCAGCCUUCGGUGGCGCGAUAGCGCCAACGUUCUCAACUAUGACACGCAAAACGCGUGCUCCGUUGAAUGGAGUUUAUCAUG [C5G C63A], with 0.429.

As to GGAUCUUCUCGUUCUAACAAAAAAGACAAAUAUGCCACAACGCUUGAGAGCAUCUUCGGAUGCAGAGGCGGCAGCCUUCGGUGGCGCGAUAGCGCCAACGUUUUCAACUAUGACACGCAAAACGCGUGCUCCGUUGAAUGGAGUUUAUCAUG [A12U C32A A41C C103U], the “polymerase ribozyme fitness (log ratio)” value was at most -4.2. On to GGAUCUUCUCGAUCUAACAAAAAAGACAAAUCUGCGACAAAGCUUGAGAGCAUCUUCGGAUGCAGUGCCGGCAGCCUUCGGUGGCGCGAUAGCGCCAACGUUCUCAACUAUGACACGCAAAACGCGUGCUCCGUUGAAUGGAGUUUAUCAUG [C36G A66U G68C], for which the “polymerase ribozyme fitness (log ratio)” value is at most -4.2.

On to GGAUCUUCUCGAUCUAACAAAAAAGACAAAUCUGCCACAAAGCUUGAGAGCAUCUUCGGAUGGAGAGUCGACAGCCUGCGGUGGGGCGAUAGCGCCAACAUUCUCAACUAUGACACGCAAAACGCGUGCUCCGUUGAAUGUAGUUUAUCAUG [C63G G68U G71A U78G C85G G100A G141U], for which the “polymerase ribozyme fitness (log ratio)” value is at most -4.2. Consider GGAUCUUCUCGAUCUAACAAAAAAGACAAAUCUGCCACAAAGCUUGAGAGCAUCUUGGGAUGCAGAGGCGGCAGCCUUCGGUGGCGCGAUAGCGUCAACGUGCUCAACUAUGACACGCAAAACGCGUGCUCCGUUGAAUGGAGUUUAUCAUG [C57G C95U U102G], for which the “polymerase ribozyme fitness (log ratio)” value was -2.74.

Consider GGAUCUUCUCGAUCUAACAAAAAAGACAAAUCUGCCACAAAGCUUGAGAGCAUCUUCGGAUGCAGAGGCGGCAGCCUUCGGUGGCGCGAUAGCGCCAACGUUCUCAACUAUGACACGCAAAACGCGUGCUCCGUUGAAAGGAGUUUAUCAUG [U139A], for which the “polymerase ribozyme fitness (log ratio)” value was -3.57. For GGAUCUUCUCGAUCUAACAAAAAAGACGAAUCUGCCACAAAGCUUGAGAGCAUCUUCGGAUGCAGAGGCGGCAGCAUUCGGUGGCGCGAUAGCGCCAACGUUCUCAGCUAUGACACGCAAAACGCGUGCUCCGUUGAAUGUAGUUUACCAUG [A28G C76A A107G G141U U148C], the “polymerase ribozyme fitness (log ratio)” value is at most -4.2. In the case of GGAUCUUCUCGAUCUAACGAAAAAGACAAAUCUGCCACAAAGCUUGAGAGUAUCUUCGGAUGCAGAGGCGGCAGCCUUCGGUGGCGCGAUAGCGACAACGUUCUCAACUAUGACUCGCAAAACGCGUGCUCCGUUGAAUGGAGUUUAUCAUG [A19G C51U C95A A115U], the “polymerase ribozyme fitness (log ratio)” value was -3.61. For the variant GGAUCUUCUCGGUCUAACAAAAAAGACAAAUCUGACACAAAGCUUGAGAGCAUCUUCGGAUGCAGAGGCGGCAACCUUCGGUGGCGCGAUAGCGCCAACGAUCUCAACUAUGACACGCAAAACGCGUGCUCCGUUGAAUGGAGUUUUUCAUG [A12G C35A G74A U101A A147U], the “polymerase ribozyme fitness (log ratio)” value was at most -4.2. Take GGAUCUUCUCGAUCUAACAAAAAAGACAAAUCUGCCACAAAGCUUGAGAGAAUCUUCGGAUGCAGAGGCGGCAGCCUUCGGUGCCGCGAUAGCGCCAACGUUCUCAACUAUGACACGCAAAACGCGUGCUCCGUUGAAUGGAGUUUAUCAUG [C51A G84C]: the “polymerase ribozyme fitness (log ratio)” value was -2.99.
